Experimental data published in patent US7858756B2, “Monoclonal antibodies that selectively recognize methamphetamine and methamphetamine like compounds” (The Board of Trustees of the University of Arkansas, priority 2006, dated 2010).
“Also recorded” adds a separate entry of the source.

Experiments:
[1] = RIA, inhibition of [3H]-(+)METH binding to mAb; conditions: RIA IC50 for METH / RIA IC50 for test ligand
Text: In reference to (+)methamphetamine, the IC50 ratio refers to the ratio of the IC50 for (+)methamphetamine in the presence of labeled (+)methamphetamine to the IC50 for a test ligand in the presence of labeled (+)methamphetamine. The IC50 value is the concentration of test ligand required to inhibit 50% of the labeled (+)methamphetamine binding. For instance, see Table 2 in the Examples.
Determination of immunochemical specificity.

[2] = Functional half-life study, 14-day continuous (+)METH infusion, serum concentrations; type: in vivo, rats
Method: The best-fit line was determined using a weighted two-compartment pharmacokinetic model.
Serum samples were collected pre-mAb and at time points after mAb administration.

[3] = METH infusion by sc osmotic minipump, serum and brain METH and AMP concentrations after mAb; type: in vivo, rat; conditions: for AMP serum concentrations vs pre-mAb levels / METH serum concentrations vs pre-mAb levels: rat serum, 1 min to 24 hr after mAb, FIG. 7
Method: FIG. 7 depicts two graphs showing the effect of mAb6H4 (Panel A) and mAb4G9 (Panel B) on METH (closed circles) and AMP (open circles) concentrations in rat serum. METH was infused using a subcutaneous osmotic minipump and once steady state concentrations were reached, anti-METH mAb was administered. Rats were sacrificed at various time points for determination of serum METH and AMP concentrations.
FIG. 8 depicts two graphs showing the effect of mAb6H4 (Panel A) and mAb4G9 (Panel B) on METH (closed circles) and AMP (open circles) concentrations in the rat brain. METH was infused using a subcutaneous osmotic minipump and once steady state concentrations were reached, anti-METH mAb was administered. Rats were sacrificed at various time points for determination of brain METH and AMP concentrations. One way ANOVA followed by a Dunnett's test was used to compare control and post-mAb METH and AMP values.

[4] = METH drug discrimination model; type: in vivo, rats; conditions: 600 mg/kg mAb
Method: (§1) FIG. 6 presents graphs depicting the effect of mAb4G9 on METH discrimination (Panel A) and AMP self-administration (Panel B) in rats. (A) Rats were trained to discriminate […] and METH and then administered mAb4G9. Drug discrimination dose response curves were then determined for METH. (B) (+)AMP self-administration before and after treatment with mAb4G9 (3-4 rats/time point). Dashed lines are used to show the groupings of responding for (+)AMP before and after mAb. *P<0.05 compared to control group before antibody (open circles).
The in vivo effects of mAb4G9 were examined using a drug discrimination model. mAb4G9 appeared to be an effective and long-lasting antagonist of METH effects in this model (FIG. 6A). The mAb4G9 (600 mg/kg) shifted the dose response curves for at least 7 days. On the first and second day after mAb treatment, the dose response curve was shifted about 4- to 6-fold. When tested again at 7 days after mAb4G9 treatment, the dose response curve was still shifted about 2.5 fold.

[5] = (+)AMP self-administration, fixed interval (60 sec) paradigm; type: in vivo, rats; conditions: 100 mg/kg mAb, 0.03 mg/kg (+)AMP per infusion
Method: as §1
We also tested the ability of mAb4G9 to block (+)AMP self-administration in a model in which rats responded under a fixed interval (60 sec) paradigm for a dose of 0.03 mg/kg (+)AMP per infusion.

[6] = (+)METH 5.6 mg/kg/day sc minipump, single mAb dose equimolar to body burden

B1: mAb4G9: monoclonal antibody, IgG2b κ, heavy chain SEQ ID NO:25, light chain SEQ ID NO:26, generated against hapten (+)METH MO10-ovalbumin (antibody, listed as Mus musculus)
heavy: EYQLQQSGTVLARPGASVKMSCKASGYTFTSYWMHWVKQRPGQGLEWIGGIYPGNSDTTYNQKFKGKAKLTAVTSTSTAYMELSSLTNEDSAVYYCLYGNYDFDYWGQGTTLTVSSAKTTPPSVYPLAPGCGDTTGSSVTLGCLVKGYFPESVTVTWNSGSLSSSVHTFPALLQSGLYTMSSSVTVPSSTWPSQTVTCSVAHPASSTTVDKKLEPSGPISTINPCPPCKECHKCPAPNLEGGPSVFIFPPNIKDVLMISLTPKVTCVVVDVSEDDPDVQISWFVNNVEVHTAQTQTHREDYNSTIRVVSTLPIQHQDWMSGKEFKCKVNNKDLPSPIERTISKIKGLVRAPQVYILPPPAEQLSRKDVSLTCLVVGFNPGDISVEWTSNGHTEENYKDTAPVLDSDGSYFIYSKLNMKTSKWEKTDSFSCNVRHEGLKNYYLKKTISRSPGK
light: DVQMTQSPSSLSASLGGKVTITCKASQDINKFIAWYQHKPGKGPRLLIHYTSTLQPGIPSRFSGSGSGRDYSFSISNLEPEDIATYYCLQYANLLPWTFGGGTKLEIKRADAAPTVSIFPPSSEQLTSGGASVVCFLNNFYPKDINVKWKIDGSERQNGVLNSWTDQDSKDSTYSMSSTLTLTKDEYERHNSYTCEATHKTSTSPIVKSFNRNEC
Antibody Specificity (IC50 ratio as percent), 4-OH-METH [1]: 10.6%
Antibody Specificity (IC50 ratio as percent), (+)AMP [1]: 34%
Antibody Specificity (IC50 ratio as percent), (+)MDA [1]: 9.0%
Antibody Specificity (IC50 ratio as percent), (+)MDMA [1]: 29%
Antibody Specificity (IC50 ratio as percent), (+)METH [1]: 100%
Antibody Specificity (IC50 ratio as percent), (+)ephedrine [1]: <0.1%
Antibody Specificity (IC50 ratio as percent), (+)norpseudoephedrine [1]: <0.1%
Antibody Specificity (IC50 ratio as percent), (+)phenylpropanolamine [1]: <0.1%
Antibody Specificity (IC50 ratio as percent), (+)pseudoephedrine [1]: 0.4%
Antibody Specificity (IC50 ratio as percent), (−)AMP [1]: 6.3%
Antibody Specificity (IC50 ratio as percent), (−)MDA [1]: 0.2%
Antibody Specificity (IC50 ratio as percent), (−)MDMA [1]: 1.1%
Antibody Specificity (IC50 ratio as percent), (−)METH [1]: 10.2%
Antibody Specificity (IC50 ratio as percent), /-phenylphrine [1]: <0.1%
Antibody Specificity (IC50 ratio as percent), dopamine [1]: <0.1%
Antibody Specificity (IC50 ratio as percent), epinephrine [1]: <0.1%
Antibody Specificity (IC50 ratio as percent), norepinepherine [1]: <0.1%
Antibody Specificity (IC50 ratio as percent), serotonin [1]: <0.1%
Antibody Specificity (IC50 ratio as percent), tyramine [1]: <0.1%
Antibody Specificity (IC50 ratio as percent), β-phenylethylamine [1]: 0.1%
serum (+)AMP concentrations compared with pre-mAb [2, 6]: maintained significantly increased concentrations
serum (+)METH concentrations compared with pre-mAb [2, 6]: maintained significantly increased concentrations
time after which mAb still very effective ([2]; continuous (+)METH infusion, single mAb dose): about 2 wks
AMP brain concentrations vs no mAb group ([3]; rat brain, FIG. 8): reduces both METH and AMP concentrations in the brain; also recorded: significantly decreased at the 5 and 30 min time points
METH brain concentrations vs no mAb group ([3]; rat brain, FIG. 8): reduces both METH and AMP concentrations in the brain; also recorded: significantly decreased METH brain concentrations at all time points
AMP serum concentrations vs pre-mAb levels [3]: repartitions AMP into the serum from other compartments; also recorded: maintains significantly elevated serum METH and AMP concentrations 24 h after administration
METH serum concentrations vs pre-mAb levels [3]: maintains significantly elevated serum METH and AMP concentrations 24 h after administration
AMP serum concentrations vs pre-mAb levels ([3]; listed as MAb4G9): significantly increased METH and AMP serum concentrations from 1 min to 24 hrs
METH serum concentrations vs pre-mAb levels ([3]; listed as MAb4G9): significantly increased METH and AMP serum concentrations from 1 min to 24 hrs
duration of shift of dose response curves [4]: at least 7 days
shift of METH dose response curve ([4]; 7 days after treatment): about 2.5 fold
number of (+)AMP injections per session [5]: significantly reduced

B2: mAb2F11: monoclonal antibody comprising heavy chain SEQ ID NO:19 and light chain SEQ ID NO:21 (antibody, listed as Mus musculus)
heavy: EYQLQQSGTVLARPGASVKMSCKASGYTFTNYWMHWVKQRPGQGLEWIGGIYPGNSDTTYNQKFKGKAKLTAVTSTSTAYMELSSLTNEDSAVYYCLYGNYDFDYWGQGTTLTVSSAKTTAPSVYPLAPVCGDTTGSSVTLGCLVKGYFPEPVTLTWNSGSLSSGVHTFPAVLQSDLYTLSSSVTVTSSTWPSQSITCNVAHPASSTKVDKKIEPRGPTIKPCPPCKCPAPNLLGGPSVFIFPPKIKDVLMISLSPIVTCVVVDVSEDDPDVQISWFVNNVEVHTAQTQTHREDYNSTLRVVSALPIQHQDWMSGKEFKCKVNNKDLPAPIERTISKPKGSVRAPQVYVLPPPEEEMTKKQVTLTCMVTDFMPEDIYVEWTNNGKTELNYKNTEPVLDSDGSYFMYSKLRVEKKNWVERNSYSCSVVHEGLHNHHTTKSFSRTPGK
light: DIQMTQSPSSLSASLGGKVTITCKASHDVNKFIAWYQHKPGKGPRLLIHYTSTLQPGIPSRFSGSGSGRDYSFSISNLEPEDIATYYCLQYTNLLPWTFGGGTKLEIKRADAAPTVSIFPPSSEQLTSGGASVVCFLNNFYPKDINVKWKIDGSERQNGVLNSWTDQDSKDSTYSMSSTLTLTKDEYERHNSYTCEATHKTSTSPIVKSFNRNEC
Antibody Specificity (IC50 ratio as percent), (+)AMP [1]: 33%
Antibody Specificity (IC50 ratio as percent), (+)MDMA [1]: 41%
Antibody Specificity (IC50 ratio as percent), (+)METH [1]: 100%^
Antibody Specificity (IC50 ratio as percent), (−)AMP [1]: 5.3%
Antibody Specificity (IC50 ratio as percent), (−)MDMA [1]: 0.6%
Antibody Specificity (IC50 ratio as percent), (−)METH [1]: 2.2%
